The text below walks through data of the supplement of paper PMC9170038.

In the data set the test system is MS2 coat protein. As to the kind of experiment: apparent KD of MS2 coat protein; designed switch direction (-1 OFF switch, 1 ON switch): 1; higher = weaker reporter binding. In outline:
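The apparent KD reported per design is the median over clusters of curve fits to normalised cluster fluorescence. The RNA switches were transcribed on Illumina chips by stalled E. coli RNA polymerase. SNAP-549-labelled MS2 coat protein was titrated from 0.7 or 1.5 nM, doubling up to 3 µM, in Tris-HCl pH 7.5 buffer containing KCl, MgCl2, BSA, DTT, tRNA and Tween-20, with no input, 200 uM small-molecule ligand, or an oligonucleotide input.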

Where [1] appears, read: input ligand: microRNA oligo, concentration not stated.
Setting [2] is: Eterna round: R95, input ligand: FMN 200 uM.
Setting [3] is: Eterna round: R95, input ligand: microRNA oligo, concentration not stated.
Where [4] appears, read: Eterna round: R95, input ligand: none.

As to “UUAAUUAAUUAAUUAUACAUGAGGAUCACCCAUGUAAGUGAUCAGGAUAUCAGCUCGUUUAGAGCUGAGAAGGGAUCCAUGUAA [SSNG3/14-A3] (Eterna round: R96, puzzle: Same State NG 3)”, the “apparent KD of MS2 coat protein” value was found to be 85.7 nM (input ligand: FMN 200 uM), 135 nM under setting [1] and 150 nM (input ligand: none).

“UUAGCACAUGAGGAUCACCCAUGUACUAUACUCAUAGGAUAUACAAAGUCUUAAGACGUGGUAGAAGGGUGAGGAA [Zaateddi] (puzzle: Same State 1)”: the “apparent KD of MS2 coat protein” value under setting [2] came out at 101 nM, the “apparent KD of MS2 coat protein” value under setting [3] stood at 106 nM and the “apparent KD of MS2 coat protein” value under setting [4] was 128 nM.

“UUAUAACAUGAGGAUCACCCAUGUCAACAAAGUCGAGGAUAUGGGCAAUUAUUAUAAGAACCAGAAGGCGAAUAUU [Mat - Same State 1 - Mod of UCT - D32] (puzzle: Same State 1)”: the “apparent KD of MS2 coat protein” value came out at 35.5 nM under setting [2], 342 nM under setting [3] and 230 nM under setting [4].

Take “UUAUACUAGAGAGGAUAUGCAGAGGAUCACCCUGCAGAAGGCUCAUUAGAGAGGAUAUGCAGAGGAUCACCCUGCAGAAGGCUC [pwkr ssNG DX.21] (Eterna round: R96, puzzle: Same State NG 1)”: the “apparent KD of MS2 coat protein” value runs as follows: (input ligand: FMN 200 uM) 10.7 nM; under setting [1], 22.2 nM; (input ligand: none) 20.1 nM.

For “UUCACCUUUUUUUACAUGAGGAUCACCCAUGUUUACCCUACGUAGGAUAUCGAUGAAUGAUUGUACGAGAAGGACGUAGUAAGU [JR_SSND3_Sub057] (Eterna round: R96, puzzle: Same State NG 3)”, the “apparent KD of MS2 coat protein” value (input ligand: FMN 200 uM) was determined as 19.1 nM, the “apparent KD of MS2 coat protein” value under setting [1] came to 30.5 nM and the “apparent KD of MS2 coat protein” value (input ligand: none) is 36.1 nM.

For the sequence “UUCCCAGCGGGAGGAUAUGGUGCCUUGUUGGUGCUAGAAGGUCCAACAUGAGGAUCACCCAUGUGGGAGUGGUCUAAUGACCUC [SS NG10LRO08] (Eterna round: R96, puzzle: Same State NG 1)”, the “apparent KD of MS2 coat protein” value came to 301 nM (input ligand: FMN 200 uM), 181 nM under setting [1] and 347 nM (input ligand: none).

Take “UUCUCACUGGUAGGAUAUGUAGGAUAUGUACAUGAGGAUCACCCAUGUCAGUUAAUGACAGAAGGAUAGAAGGACCACAUCUCU [pwkr ssNG2 2FMN 1F5s.1] (Eterna round: R96, puzzle: Same State NG 2)”: the “apparent KD of MS2 coat protein” value runs as follows: (input ligand: FMN 200 uM) 198 nM; under setting [1], 139 nM; (input ligand: none) 146 nM.

“UUGAAGAACAUAGGAUAUUGAAUACAUAUGUUUAACAUGAGGAUCACCCAUGUGGGUUGCGGUAUCGAGAAGGAUGAAUAAAAG [Mat - Same State NG 2 - JL mod - D15] (Eterna round: R96, puzzle: Same State NG 2)”: the “apparent KD of MS2 coat protein” value came to 328 nM (input ligand: FMN 200 uM), 259 nM under setting [1] and 256 nM (input ligand: none).

On to “UUGAAGAAUUAAGGAUAUUGAAUACAUAUGUUUAACAUGAGGAUCACCCAUGUGGGUUGCGGUGUCGAGAAGGUAAAAUACUAG [Mat - same State NG 2 - JL mod - D97] (Eterna round: R96, puzzle: Same State NG 2)”, for which the “apparent KD of MS2 coat protein” value runs as follows: (input ligand: FMN 200 uM) 236 nM; under setting [1], 278 nM; (input ligand: none) 270 nM.

For the sequence “UUGCGGGCUUGAGGAUAUUGAGUACAUAUGUUUAACAUGAGGAUCACCCAUGUGGGUUGCGGUAUCGAGAAGGUAACUUACUAC [salish99_SSNG2_r04_807] (Eterna round: R96, puzzle: Same State NG 2)”, the “apparent KD of MS2 coat protein” value by setting is: (input ligand: FMN 200 uM) 110 nM; under setting [1], 70.4 nM; (input ligand: none) 97.2 nM.

As to “UUGCGGGCUUGAGGAUAUUGAGUACAUAUGUUUAACAUGAGGAUCACCCAUGUGGGUUGCGGUAUCGAGAAGGUAGCUUCCUGC [salish99_SSNG2_r04_812] (Eterna round: R96, puzzle: Same State NG 2)”, the “apparent KD of MS2 coat protein” value runs as follows: (input ligand: FMN 200 uM) 76.3 nM; under setting [1], 83.6 nM; (input ligand: none) 79.1 nM.
